Measured values from paper PMC4913355 (Methods in enzymology, 2015).

B1: Skp (natural protein, E. coli, UniProt P0AEU7 21-161, looked up)
chain: ADKIAIVNMGSLFQQVAQKTGVSNTLENEFKGRASELQRMETDLQAKMKKLQSMKAGSDRTKLEKDVMAQRQTFAQKAQAFEQDRARRSNEERGKLVTRIQTAVKSVANSQDIDLVVDANAVAYNSSDVKDITADVLKQVK
B2: unfolded OmpA, deuterated (natural protein, E. coli, UniProt P0A910 22-346, looked up)
chain: APKDNTWYTGAKLGWSQYHDTGFINNNGPTHENQLGAGAFGGYQVNPYVGFEMGYDWLGRMPYKGSVENGAYKAQGVQLTAKLGYPITDDLDIYTRLGGMVWRADTKSNVYGKNHDTGVSPVFAGGVEYAITPEIATRLEYQWTNNIGDAHTIGTRPDNGMLSLGVSYRFGQGEAAPVVAPAPAPAPEVQTKHFTLKSDVLFNFNKATLKPEGQAALDQLYSQLSNLDPKDGSVVVLGYTDRIGSDAYNQGLSERRAQSVVDYLISKGIPADKISARGMGESNPVTGNTCDNVKQRAALIDCLAPDRRVEIEVKGIKDVVTQPQA
modifications: partially deuterated (estimated 50 % ± 5 %)
B3: unfolded OmpW, deuterated (natural protein, UniProt P0A915 22-212, looked up)
chain: HEAGEFFMRAGSATVRPTEGAGGTLGSLGGFSVTNNTQLGLTFTYMATDNIGVELLAATPFRHKIGTRATGDIATVHHLPPTLMAQWYFGDASSKFRPYVGAGINYTTFFDNGFNDHGKEAGLSDLSLKDSWGAAGQVGVDYLINRDWLVNMSVWYMDIDTTANYKLGGAQQHDSVRLDPWVFMFSAGYRF
modifications: partially deuterated (estimated 50 % ± 5 %)

Key:
[1] = target: the molecule itself; test: small-angle neutron scattering
[2] = target: B1; test: contrast variation small-angle neutron scattering

| Binder | stoichiometry N [1] | stoichiometry N [2] |
| --- | --- | --- |
| B1 | 3 | – |
| B2 | – | 3 Skp monomers per uOMP |
| B3 | – | 3 Skp monomers per uOMP |
